{"source": "patent US20250051476A1", "about": "(ABDERA THERAPEUTICS, published 2025)", "key": {"[1]": {"biological_target": "T1, DLL3 on cells (SHP-77, NCI-H82, HEK-DLL3, membrane proteome array cells) (human, UniProt Q9NYJ7 27-618)", "T1 construct": "whole, on cells; also called hDLL3", "T1 sequence (looked up)": "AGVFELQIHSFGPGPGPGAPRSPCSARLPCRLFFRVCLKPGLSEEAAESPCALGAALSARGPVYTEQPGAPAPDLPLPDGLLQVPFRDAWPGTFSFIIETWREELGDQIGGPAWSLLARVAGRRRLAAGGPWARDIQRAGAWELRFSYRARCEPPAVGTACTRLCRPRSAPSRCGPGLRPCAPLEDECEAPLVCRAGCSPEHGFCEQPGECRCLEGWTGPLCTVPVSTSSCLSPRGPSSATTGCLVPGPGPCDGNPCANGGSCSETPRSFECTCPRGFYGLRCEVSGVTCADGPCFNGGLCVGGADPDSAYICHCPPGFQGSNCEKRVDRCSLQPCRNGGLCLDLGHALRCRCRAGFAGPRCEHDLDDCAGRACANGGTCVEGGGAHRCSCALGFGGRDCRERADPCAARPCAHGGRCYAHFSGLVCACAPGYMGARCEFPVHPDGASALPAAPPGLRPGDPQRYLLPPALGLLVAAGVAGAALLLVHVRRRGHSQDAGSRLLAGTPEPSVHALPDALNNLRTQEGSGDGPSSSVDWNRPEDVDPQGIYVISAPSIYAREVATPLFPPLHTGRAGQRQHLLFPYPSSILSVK", "experiment": "flow cytometry on SHP-77 cells, Geomeans RL1-H"}, "[2]": {"biological_target": "T2, human DLL3 (human, UniProt Q9NYJ7 27-492, limits assumed)", "T2 construct": "also called hDLL3; Delta-like protein 3", "T2 sequence (looked up)": "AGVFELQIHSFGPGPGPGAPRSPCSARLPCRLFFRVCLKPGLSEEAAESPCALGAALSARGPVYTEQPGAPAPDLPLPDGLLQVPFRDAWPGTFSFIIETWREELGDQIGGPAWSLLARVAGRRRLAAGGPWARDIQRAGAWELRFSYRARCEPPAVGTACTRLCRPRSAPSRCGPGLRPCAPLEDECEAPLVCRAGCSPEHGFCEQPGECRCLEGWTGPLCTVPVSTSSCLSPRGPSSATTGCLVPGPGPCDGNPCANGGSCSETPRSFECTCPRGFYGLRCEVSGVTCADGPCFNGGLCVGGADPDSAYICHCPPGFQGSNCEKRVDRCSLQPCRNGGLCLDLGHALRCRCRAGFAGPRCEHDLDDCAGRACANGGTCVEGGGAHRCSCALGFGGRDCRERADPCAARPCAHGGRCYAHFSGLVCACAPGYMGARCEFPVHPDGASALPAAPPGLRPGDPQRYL", "experiment": "ELISA"}, "[3]": {"biological_target": "T3, mouse DLL3 (mouse, UniProt O88516 25-477, limits assumed)", "T3 construct": "also called mDLL3; murine DLL3", "T3 sequence (looked up)": "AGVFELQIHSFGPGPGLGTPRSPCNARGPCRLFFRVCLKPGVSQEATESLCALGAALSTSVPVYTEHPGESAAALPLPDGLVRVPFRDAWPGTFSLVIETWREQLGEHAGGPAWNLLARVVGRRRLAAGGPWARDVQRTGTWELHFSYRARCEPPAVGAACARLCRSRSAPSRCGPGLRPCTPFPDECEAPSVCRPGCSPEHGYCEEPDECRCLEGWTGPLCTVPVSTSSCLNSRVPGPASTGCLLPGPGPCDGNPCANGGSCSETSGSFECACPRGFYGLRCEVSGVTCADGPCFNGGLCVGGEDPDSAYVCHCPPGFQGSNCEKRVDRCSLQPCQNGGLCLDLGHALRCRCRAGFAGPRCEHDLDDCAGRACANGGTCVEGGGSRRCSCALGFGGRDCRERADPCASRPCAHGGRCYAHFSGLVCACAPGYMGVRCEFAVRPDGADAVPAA", "experiment": "ELISA"}, "[4]": {"biological_target": "T1, DLL3 on cells (SHP-77, NCI-H82, …)", "experiment": "flow cytometry on SHP-77 cells, Geomeans RL1-H", "remark": "listed apart in the source"}}, "note": "Where two headings read alike, the source gives them in different places."}
{"binder": "107_zu4 (Fc fusion, Humanized VHH-Fc) QVQLVESGGGLVQPGGSLRLSCAASDRTFSSYAVGWFRQAPGQEREFVAAISWNGGRTLYTDSVTGRFTISRDNSKNTLYLQMNSLRAEDTAVYYCAARPAAPTRRLEYDYWGQGTLVTVSSEPKSSDKTHTCPPCPAPEAEGAPSVFLFPPKPKDTLMISRTPEVTCVVVDVSHEDPEVKFNWYVDGVEVHNAKTKPREEQYNSTYRVVSVLTVLHQDWLNGKEYKCKVSNKALPSSIEKTISKAKGQPREPQVYTLPPSREEMTKNQVSLTCLVKGFYPSDIAVEWESNGQPENNYKTTPPVLDSDGSFFLYSKLTVDKSRWQQGNVFSCSVMHEALHNQYTQKSLSLSPG", "values": [{"measurement": "binding result", "setting": "[1]", "value": "binds"}, {"measurement": "binding result", "setting": "[2]", "value": "binds"}]}
{"binder": "107_zu5 (Fc fusion, Humanized VHH-Fc) QVQLVESGGGLVQPGGSLRLSCAASDRTFSSYAVGWFRQAPGKEREFVAAISWNGGRTLYTDSVTGRFTISRDNSKNTLYLQMNSLRAEDTAVYYCAARPAAPTRRLEYDYWGQGTLVTVSSEPKSSDKTHTCPPCPAPEAEGAPSVFLFPPKPKDTLMISRTPEVTCVVVDVSHEDPEVKFNWYVDGVEVHNAKTKPREEQYNSTYRVVSVLTVLHQDWLNGKEYKCKVSNKALPSSIEKTISKAKGQPREPQVYTLPPSREEMTKNQVSLTCLVKGFYPSDIAVEWESNGQPENNYKTTPPVLDSDGSFFLYSKLTVDKSRWQQGNVFSCSVMHEALHNQYTQKSLSLSPG", "values": [{"measurement": "binding result", "setting": "[1]", "value": "binds"}, {"measurement": "binding result", "setting": "[2]", "value": "binds"}]}
{"binder": "107_zu3 (Fc fusion, Humanized VHH-Fc) QVQLVESGGGLVQPGGSLRLSCAASDRTFSSYAVGWFRQAPGQGREFVAAISWNGGRTLYTDSVTGRFTISRDNSKNTLYLQMNSLRAEDTAVYYCAARPAAPTRRLEYDYWGQGTLVTVSSEPKSSDKTHTCPPCPAPEAEGAPSVFLFPPKPKDTLMISRTPEVTCVVVDVSHEDPEVKFNWYVDGVEVHNAKTKPREEQYNSTYRVVSVLTVLHQDWLNGKEYKCKVSNKALPSSIEKTISKAKGQPREPQVYTLPPSREEMTKNQVSLTCLVKGFYPSDIAVEWESNGQPENNYKTTPPVLDSDGSFFLYSKLTVDKSRWQQGNVFSCSVMHEALHNQYTQKSLSLSPG", "values": [{"measurement": "binding result", "setting": "[1]", "value": "binds"}, {"measurement": "binding result", "setting": "[2]", "value": "binds"}]}
{"binder": "126_zu4 (Fc fusion, Humanized VHH-Fc) QVQLVESGGGLVQPGGSLRLSCAASGITFSMYSMSWYRQAPGQQRELVAATTTFGSTNYADSVKGRFTISRDNSKNTLYLQMNSLRAEDTAVYYCAARFTSEEYWGQGTLVTVSSEPKSSDKTHTCPPCPAPEAEGAPSVFLFPPKPKDTLMISRTPEVTCVVVDVSHEDPEVKFNWYVDGVEVHNAKTKPREEQYNSTYRVVSVLTVLHQDWLNGKEYKCKVSNKALPSSIEKTISKAKGQPREPQVYTLPPSREEMTKNQVSLTCLVKGFYPSDIAVEWESNGQPENNYKTTPPVLDSDGSFFLYSKLTVDKSRWQQGNVFSCSVMHEALHNQYTQKSLSLSPG", "values": [{"measurement": "EC50 (read off the curve)", "setting": "[1]", "value": "~0.1", "unit": "nM"}, {"measurement": "binding result", "setting": "[3]", "value": "no binding"}]}
{"binder": "126_zu1 (Fc fusion, Humanized VHH-Fc) QVQLVESGGGLVQPGGSLRLSCAASGITFSMYSMSWFRQAPGQGLEAVAATTTFGSTNYADSVKGRFTISRDNSKNTLYLQMNSLRAEDTAVYYCAARFTSEEYWGQGTLVTVSSEPKSSDKTHTCPPCPAPEAEGAPSVFLFPPKPKDTLMISRTPEVTCVVVDVSHEDPEVKFNWYVDGVEVHNAKTKPREEQYNSTYRVVSVLTVLHQDWLNGKEYKCKVSNKALPSSIEKTISKAKGQPREPQVYTLPPSREEMTKNQVSLTCLVKGFYPSDIAVEWESNGQPENNYKTTPPVLDSDGSFFLYSKLTVDKSRWQQGNVFSCSVMHEALHNQYTQKSLSLSPG", "values": [{"measurement": "binding result", "setting": "[1]", "value": "binds"}, {"measurement": "binding result", "setting": "[3]", "value": "no binding"}, {"measurement": "binding result", "setting": "[2]", "value": "binds"}]}
{"binder": "126_zu3 (Fc fusion, Humanized VHH-Fc) QVQLVESGGGLVQPGGSLRLSCAASGITFSMYSMSWYRQAPGQGLELVAATTTFGSTNYADSVKGRFTISRDNSKNTLYLQMNSLRAEDTAVYYCAARFTSEEYWGQGTLVTVSSEPKSSDKTHTCPPCPAPEAEGAPSVFLFPPKPKDTLMISRTPEVTCVVVDVSHEDPEVKFNWYVDGVEVHNAKTKPREEQYNSTYRVVSVLTVLHQDWLNGKEYKCKVSNKALPSSIEKTISKAKGQPREPQVYTLPPSREEMTKNQVSLTCLVKGFYPSDIAVEWESNGQPENNYKTTPPVLDSDGSFFLYSKLTVDKSRWQQGNVFSCSVMHEALHNQYTQKSLSLSPG", "values": [{"measurement": "EC50 (read off the curve)", "setting": "[1]", "value": "~0.1", "unit": "nM"}, {"measurement": "binding result", "setting": "[3]", "value": "no binding"}]}
{"binder": "126_zu5 (Fc fusion, Humanized VHH-Fc) QVQLVESGGGLVQPGGSLRLSCAASGITFSMYSMSWYRQPPGKQRELVAATTTFGSTNYADSVKGRFTISRDNSKNTLYLQMNSLRAEDTAVYYCAARFTSEEYWGQGTLVTVSSEPKSSDKTHTCPPCPAPEAEGAPSVFLFPPKPKDTLMISRTPEVTCVVVDVSHEDPEVKFNWYVDGVEVHNAKTKPREEQYNSTYRVVSVLTVLHQDWLNGKEYKCKVSNKALPSSIEKTISKAKGQPREPQVYTLPPSREEMTKNQVSLTCLVKGFYPSDIAVEWESNGQPENNYKTTPPVLDSDGSFFLYSKLTVDKSRWQQGNVFSCSVMHEALHNQYTQKSLSLSPG", "values": [{"measurement": "EC50 (read off the curve)", "setting": "[1]", "value": "~0.1", "unit": "nM"}, {"measurement": "binding result", "setting": "[3]", "value": "no binding"}]}
{"binder": "186 (Fc fusion, Parental camelid VHH-Fc) QVQVVESGGGLVQPGGSLTLSCAASGFDFSTYTVNWYRQAPGKEREKVARISSTGTTTNYANSAKGRFTLSRDNAKNRVYLQMNNLKPEDTAVYFCNFERFDSNYWGQGTQVTVSSEPKSSDKTHTCPPCPAPEAEGAPSVFLFPPKPKDTLMISRTPEVTCVVVDVSHEDPEVKFNWYVDGVEVHNAKTKPREEQYNSTYRVVSVLTVLHQDWLNGKEYKCKVSNKALPSSIEKTISKAKGQPREPQVYTLPPSREEMTKNQVSLTCLVKGFYPSDIAVEWESNGQPENNYKTTPPVLDSDGSFFLYSKLTVDKSRWQQGNVFSCSVMHEALHNQYTQKSLSLSPG", "values": [{"measurement": "EC50 (read off the curve)", "setting": "[4]", "value": "~0.1", "unit": "nM"}]}
{"binder": "186_zu1 (Fc fusion, Humanized VHH-Fc) QVQLVESGGGLVQPGGSLRLSCAASGFDFSTYTVNWFRQAPGQGLEAVARISSTGTTTNYANSAKGRFTISRDNSKNTLYLQMNSLRAEDTAVYYCAAERFDSNYWGQGTLVTVSSEPKSSDKTHTCPPCPAPEAEGAPSVFLFPPKPKDTLMISRTPEVTCVVVDVSHEDPEVKFNWYVDGVEVHNAKTKPREEQYNSTYRVVSVLTVLHQDWLNGKEYKCKVSNKALPSSIEKTISKAKGQPREPQVYTLPPSREEMTKNQVSLTCLVKGFYPSDIAVEWESNGQPENNYKTTPPVLDSDGSFFLYSKLTVDKSRWQQGNVFSCSVMHEALHNQYTQKSLSLSPG", "values": [{"measurement": "binding result", "setting": "[3]", "value": "no binding"}, {"measurement": "EC50 (read off the curve)", "setting": "[4]", "value": "~0.3", "unit": "nM"}]}
{"binder": "186_zu2 (Fc fusion, Humanized VHH-Fc) QVQLVESGGGLVQPGGSLRLSCAASGFDFSTYTVNWFRQAPGQGLEKVARISSTGTTTNYANSAKGRFTISRDNSKNTLYLQMNSLRAEDTAVYYCAAERFDSNYWGQGTLVTVSSEPKSSDKTHTCPPCPAPEAEGAPSVFLFPPKPKDTLMISRTPEVTCVVVDVSHEDPEVKFNWYVDGVEVHNAKTKPREEQYNSTYRVVSVLTVLHQDWLNGKEYKCKVSNKALPSSIEKTISKAKGQPREPQVYTLPPSREEMTKNQVSLTCLVKGFYPSDIAVEWESNGQPENNYKTTPPVLDSDGSFFLYSKLTVDKSRWQQGNVFSCSVMHEALHNQYTQKSLSLSPG", "values": [{"measurement": "binding result", "setting": "[3]", "value": "no binding"}, {"measurement": "EC50 (read off the curve)", "setting": "[4]", "value": "~0.1", "unit": "nM"}]}
{"binder": "100_zu5 (Fc fusion, Humanized VHH-Fc) QVQLVESGGGLVQPGGSLRLSCAASGIVFNSDVMGWYRQVPGKPRELVATITGGGSTNYATSVKGRFTISRDNSKNTLYLQMNSLRAEDTAVYYCAARRGDSMLAFWGQGTLVTVSSEPKSSDKTHTCPPCPAPEAEGAPSVFLFPPKPKDTLMISRTPEVTCVVVDVSHEDPEVKFNWYVDGVEVHNAKTKPREEQYNSTYRVVSVLTVLHQDWLNGKEYKCKVSNKALPSSIEKTISKAKGQPREPQVYTLPPSREEMTKNQVSLTCLVKGFYPSDIAVEWESNGQPENNYKTTPPVLDSDGSFFLYSKLTVDKSRWQQGNVFSCSVMHEALHNQYTQKSLSLSPG", "values": [{"measurement": "binding result", "setting": "[3]", "value": "no binding"}, {"measurement": "binding result", "setting": "[2]", "value": "no binding"}]}
